Measurements: patent publication US8710195B2, “Fluorescent proteins” (JNC Corporation, priority 2003, dated 2014)

Legend:
[1] = Substrate specificity, chemiluminescence with h-CTZ; type: biochemical; conditions: compared with coelenterazine
Procedure: bFP-aq, e-bFP-aq, and h-bFP-aq (0.25 μg) prepared in Example 2 were individually dissolved in 100 μl of 50 mM Tris-HCl (pH 7.6) containing 5 mM dithiothreitol (DTT) and 1 μg/μl coelenterazine and its analog were added to each solution. Each chemiluminescence in the steady reaction state (after 10 min) was measured with a luminometer (AB-2200; manufactured by Atto Co., Ltd.).

[2] = Recoverability of fluorescence-generating ability after heating at 90° C.; type: physicochemical; conditions: heated at 90° C. for 3 min
Procedure: The thermal stability of bFP-aq prepared in Examples 2 was compared with that of gFP-aq prepared Example 3. The solution containing bFP-aq or gFP-aq with a protein concentration of 0.26 mg/ml was heated at 90° C. for 3 min and allowed to stand at 24° C. Subsequently, each fluorescence generation intensity was measured with a spectrofluorometer.

[3] = when calcium ions bind; cited from earlier work

Compound	Quality as luminescent substrate of the bFPs [1]	Ability to emit light due to the addition of calcium ions after heat treatment [2]	maximum wave length of blue light emission [3]
O=c1c(Cc2ccccc2)nc2c(Cc3ccccc3)[nH]c(-c3ccc(O)cc3)cn1-2 [h-coelenterazine]	serves as a luminescent substrate better than coelenterazine		
aequorin		completely been lost	465-470 nm
